B1: JIP4[1-103] (domain or fragment)
chain: MELEDGVVYQEEPGGSGAVMSERVSGLAGSIYREFERLIGRYDEEVVKELMPLVVAVLENLDSVFAQDQEHQVELELLRDDNEQLITQYEREKALRKHAEEKF
B2: JIP3[1-108] (domain or fragment)
chain: MMEIQMDEGGGVVVYQDDYCSGSVMSERVSGLAGSIYREFERLIHCYDEEVVKELMPLVVNVLENLDSVLSENQEHEVELELLREDNEQLLTQYEREKALRRQAEEKF

Biological target: DLIC1[388-523] (human)
Assay: ITC

Row | Binder | Kd [nM] | stoichiometry N (DLIC1-C molecules per RH1 dimer)
1 | B1 | 4000 | 2
2 | B2 | 1000 | 2

From publication doi:10.1101/2021.10.11.463801
